The subject of test [1] is nuclear beta-catenin. Kind of test: Wnt-induced nuclear beta-catenin accumulation in Xwnt8-responding animal cap cells. The test is classed as in vivo, Xenopus. The settings on record: stage 9 animal cap cells neighbouring Xwnt8-expressing cells; 200 pg mRNA. The method, then: FIGS. 7A-C are each schematics with accompanying bar graphs showing that Tiki1 inhibits Wnt/β-catenin signaling in both Wnt-producing and Wnt-responding cells. 7A, Tiki1 acts in Xwnt8-producing cells. Xwnt8 mRNA (20 pg) was co-injected with Tiki1 or LDLR mRNA (100 pg) into a single blastomere at the 8-cell stage, while S01234-Luciferase (140 pg) plus TK-Renilla (1.25 pg) reporter DNAs were injected into a neighboring blastomere. 7B, Tiki1 acts in Xwnt8-responding cells. S01234-Luciferase and TK-Renilla reporter DNAs were co-injected with Tiki1 or LDLR mRNA in a single blastomere, while Xwnt8 mRNA was injected into a neighboring blastomere. Luciferase readings were normalized to Renilla. 7C, Tiki1 reduces nuclear beta-catenin levels in Xwnt8-responding cells. […] Only cells within the distance of five cell bodies from Xwnt8-expressing cells were counted in any given field. […]
Secondly Wnt-induced nuclear beta-catenin accumulation was monitored. […] In confocal microscopy Xwnt8-expressing cells were traced by RFP (red), whereas Wnt-responding cells that expressed Tiki1 or LDLR were traced by FLD (green), and naive cells descended from uninjected blastomeres lacked green or red fluorescence. […]

Test [2] concerns the target Wnt3a (Mus musculus, UniProt P27467). The test can be described thus: Triton X-114 phase separation of Wnt3a secreted from Tiki-expressing cells. It is filed as cell-based. The arrangement: expressed in transfected cells; host or cells: mouse L cells (Wnt3a-expressing); HEK293T. The settings on record: HEK293T cells. The text has this: FIG. 6A is a gel showing that Tiki inactivates Wnt3a by regulating Wnt3a acylation/palmitoylation. A Triton X-114 phase separation experiment is shown in 6A. […] T, total; Aq, aqueous; De, detergent.
FIG. 6B is a gel showing that Wnt3a secreted from Tiki1 or Tiki2 but not GFP-expressing HEK293T cells partitioned in the aqueous phase.
C77 palmitoylation is required for Wnt3a activity (Willert, K. et al., Nature 423, 448-452 (2003)) and binding to both Fz and LRP6 (Komekado, H. et al., Genes Cells 12, 521-534 (2007); Cong, F. et al., Development 131, 5103-5115 (2004)), while S209 acylation is critical for Wnt3a secretion (Takada, R. et al., Dev Cell 11, 791-801 (2006)). Thus Tiki proteins may affect C77 palmitoylation but not S209 acylation. The palmitate adduct at C77 is the primary contributor to Wnt3a hydrophobicity because palmitoylated Wnt3a is partitioned in the Triton X-114 detergent phase whereas Wnt3a lacking the palmitate is soluble in the aqueous phase (Willert, K. et al., Nature 423, 448-452 (2003); Komekado, H. et al., Genes Cells 12, 521-534 (2007)).

The target in test [3] is T1, Recombinant human WNT3A protein (Homo sapiens, UniProt P56704). Kind of test: In vitro incubation of recombinant WNT3A with purified protein, Triton X-114 phase separation. The test is classed as biochemical. The settings on record: purified protein incubated with recombinant human WNT3A. The method, then: FIG. 6G is a gel showing that recombinant WNT3A was incubated with Krm2N or Tiki2N purified from WCL (top) or from CM (bottom) and was subjected to Triton X-114 phase separation.
FIG. 6H is a gel showing that Recombinant WNT3A was incubated with Krm2N or Tiki2N or Tiki2NΔ. purified from WCL and was subjected to Triton X-114 phase separation.
(§1) Recombinant human Tiki2N, which is the ectodomain harboring the conserved Tiki domain (FIG. 6J), was purified, via tandem affinity procedures from HEK293T cell extracts or CM.

The target of test [4] is T1, Recombinant human WNT3A protein. Kind of test: Acyl-biotinyl exchange (ABE) analysis of WNT3A after in vitro incubation. It is filed as biochemical. The note with it: compared with WNT3A incubated with Krm2N. The method, then:
FIG. 6I is a gel showing the results of ABE analysis of WNT3A after in vitro incubation with Krm2N or Tiki2N Biotinylation of WNT3A was much reduced after incubation with Tiki2N compared to that of WNT3A incubated with Krm2N.
Biotinylation of Wnt3a secreted in the presence of Tiki2 was much reduced compared to that of Wnt3a from control cells (FIG. 6C). This reduction of available thioester linkage indicates depalmitoylation of Wnt3a at a cysteine residue, e.g., C77, in the presence of Tiki2
as §1

Test [5] has as its system Super-TOPFLASH (STF) luciferase reporter. Kind of test: Super-TOPFLASH (STF) luciferase reporter induction in STF cells. It is filed as cell-based. The note with it: 6-hour treatment; not shown. The procedure: A high throughput screen (HTS) is used to identify compounds that enhance LRP5/6 signaling as potential therapeutics for osteoporosis or cellular proliferative disorders. We employ a Wnt responsive cell line carrying a Super-TOPFLASH (STF) luciferase reporter (Wnt-responsive) (Major et al. Science. 2007. 316:1043-6). These STF cells grow as an adherent monolayer making them ideally suited for 384-well-plate screening format. […] Different conditions are tested and an acceptable z′ score of 0.5 or above (z′ measures HTS quality and reproducibility (Zhang et al. J Biomol Screen. 1999. 4:67-73)) is achieved.

The text below walks through data of patent US20130101582A1, “Tiki1 and Tiki2, Wnt Inhibitors” (CHILDREN'S MEDICAL CENTER CORPORATION, priority 2010, published 2013).

Wnt3a, sequence (P27467 19-352): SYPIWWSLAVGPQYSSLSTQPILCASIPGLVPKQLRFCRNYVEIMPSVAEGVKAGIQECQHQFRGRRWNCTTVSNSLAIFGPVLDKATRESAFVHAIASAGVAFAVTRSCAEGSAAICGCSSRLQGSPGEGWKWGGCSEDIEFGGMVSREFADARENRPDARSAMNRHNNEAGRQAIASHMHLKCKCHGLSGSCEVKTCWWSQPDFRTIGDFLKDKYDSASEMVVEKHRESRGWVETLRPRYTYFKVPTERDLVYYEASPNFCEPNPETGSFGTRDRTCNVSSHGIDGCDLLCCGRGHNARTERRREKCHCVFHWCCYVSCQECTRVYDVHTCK

As for “LDLR: negative control, expressed from injected LDLR mRNA”, in test [1], the “Cells displaying nuclear beta-catenin” value worked out at 80%.

B1: Tiki2N: Recombinant human Tiki2N, the ectodomain harboring the conserved Tiki domain (protein)
chain: RPQPPDGGQCRPPGSQRDLNSFLWTIRRDPPAYLFGTIHVPYTRVWDFIPDNSKAAFQASTRVYFELDLTDPYTISALASCQLLPHGENLQDVLPHELYWRLKRHLDYVKLMMPSWMTPAQRGKGLYADYLFNAIAGNWERKRPVWVMLMVNSLTERDVRFRGVPVLDLYLAQQAEKMKKTTGAVEQVEEQCHPLNNGLNFSQVLFALNQTLLQQESVRAGSLQASYTTEDLIKHYNCGDLSAVIFNHDTSQLPNFINTTLPPHEQVTAQEIDSYFRQELIYKRNERMGKRVMALLRENEDKICFFAFGAGHFLGNNTVIDILRQAGLEVDHTPAGQAIHSPAPQSPAPSPEGTSTSPAPVTPAAAVPEAPSVTPTAPPEDEDPALSPHLLLPDSLSQLEEFGRQRKWHKRQSTHQRPRQFNDLWVRIEDSTTASPPPLPLQPTHSSGTAKPPFQLSDQLQQQDPPG
modifications: left off: small tags and cut ends
notes: Recombinant human Tiki2N, the ectodomain harboring the conserved Tiki domain
On to B1, for which the “Partitioning of secreted Wnt3a in Triton X-114 phase separation” value in test [2] is “partitioned exclusively in the aqueous phase”. Further, the “Partitioning of WNT3A in Triton X-114 phase separation after in vitro incubation” value in test [3] is given as “became segregated in the aqueous phase”. Also, in test [4], the “Biotinylation of WNT3A in ABE assay after in vitro incubation” value is “biotinylated to a much less extent”.

B2: Wnt3a: Wnt ligand added to STF reporter cells (protein)
chain: SYPIWWSLAVGPQYSSLGSQPILCASIPGLVPKQLRFCRNYVEIMPSVAEGIKIGIQECQHQFRGRRWNCTTVHDSLAIFGPVLDKATRESAFVHAIASAGVAFAVTRSCAEGTAAICGCSSRHQGSPGKGWKWGGCSEDIEFGGMVSREFADARENRPDARSAMNRHNNEAGRQAIASHMHLKCKCHGLSGSCEVKTCWWSQPDFRAIGDFLKDKYDSASEMVVEKHRESRGWVETLRPRYTYFKVPTERDLVYYEASPNFCEPNPETGSFGTRDRTCNVSSHGIDGCDLLCCGRGHNARAERRREKCRCVFHWCCYVSCQECTRVYDVHTCK
On to B2, for which the “Induction of the STF reporter” value in test [5] is 30-40 folds.
